Source: the Human Domainome abundance scans (Beltran et al. 2025)
± gives the uncertainty stated by the source.

B1: COUP transcription factor 1, residues 83 to 159; numbered along this chain, P10589 (parent)
chain: HIECVVCGDKSSGKHYGQFTCEGCKSFFKRSVRRNLTYTCRANRNCPIDQHHRNQCQYCRLKKCLKVGMRREAVQRG

Variants of: B1
Test: abundance fitness (aPCA) (normalised: wild type 0, dead -1); higher = more abundant; growth selection in yeast, the domain comes from the species named
Settings: Homo sapiens

Variant | abundance fitness
HIECVVCGDKSSGKHYGQFTCEGCKSFFKRSVRRNLTYTCRANRNCPIDQHHRNDCQYCRLKKCLKVGMRREAVQRG | 0.123 ± 0.051
HIECVVCGDKSSGKHYGQFTCEGCKSFFKRSVRRNLTYTCRANRNCPIDQHHRNECQYCRLKKCLKVGMRREAVQRG | 0.19 ± 0.053
HIECVVCGDKSSGKHYGQFTCEGCKSFFKRSVRRNLTYTCRANRNCPIDQHHRNFCQYCRLKKCLKVGMRREAVQRG | 0.069 ± 0.063
HIECVVCGDKSSGKHYGQFTCEGCKSFFKRSVRRNLTYTCRANRNCPIDQHHRNGCQYCRLKKCLKVGMRREAVQRG | -0.017 ± 0.037
HIECVVCGDKSSGKHYGQFTCEGCKSFFKRSVRRNLTYTCRANRNCPIDQHHRNHCQYCRLKKCLKVGMRREAVQRG | 0.017 ± 0.052
HIECVVCGDKSSGKHYGQFTCEGCKSFFKRSVRRNLTYTCRANRNCPIDQHHRNICQYCRLKKCLKVGMRREAVQRG | 0.006 ± 0.06
HIECVVCGDKSSGKHYGQFTCEGCKSFFKRSVRRNLTYTCRANRNCPIDQHHRNKCQYCRLKKCLKVGMRREAVQRG | -0.021 ± 0.073
HIECVVCGDKSSGKHYGQFTCEGCKSFFKRSVRRNLTYTCRANRNCPIDQHHRNLCQYCRLKKCLKVGMRREAVQRG | -0.059 ± 0.045
HIECVVCGDKSSGKHYGQFTCEGCKSFFKRSVRRNLTYTCRANRNCPIDQHHRNMCQYCRLKKCLKVGMRREAVQRG | -0.126 ± 0.072
HIECVVCGDKSSGKHYGQFTCEGCKSFFKRSVRRNLTYTCRANRNCPIDQHHRNNCQYCRLKKCLKVGMRREAVQRG | -0.083 ± 0.075
HIECVVCGDKSSGKHYGQFTCEGCKSFFKRSVRRNLTYTCRANRNCPIDQHHRNPCQYCRLKKCLKVGMRREAVQRG | -0.109 ± 0.058
HIECVVCGDKSSGKHYGQFTCEGCKSFFKRSVRRNLTYTCRANRNCPIDQHHRNRCQYCRLKKCLKVGMRREAVQRG | -0.074 ± 0.039
HIECVVCGDKSSGKHYGQFTCEGCKSFFKRSVRRNLTYTCRANRNCPIDQHHRNTCQYCRLKKCLKVGMRREAVQRG | -0.101 ± 0.051
HIECVVCGDKSSGKHYGQFTCEGCKSFFKRSVRRNLTYTCRANRNCPIDQHHRNVCQYCRLKKCLKVGMRREAVQRG | -0.003 ± 0.04
HIECVVCGDKSSGKHYGQFTCEGCKSFFKRSVRRNLTYTCRANRNCPIDQHHRNWCQYCRLKKCLKVGMRREAVQRG | 0.095 ± 0.051
HIECVVCGDKSSGKHYGQFTCEGCKSFFKRSVRRNLTYTCRANRNCPIDQHHRNYCQYCRLKKCLKVGMRREAVQRG | -0.039 ± 0.062
HIECVVCGDKSSGKHYGQFTCEGCKSFFKRSVRRNLTYTCRANRNCPIDQHHRNQAQYCRLKKCLKVGMRREAVQRG | -0.552 ± 0.098
HIECVVCGDKSSGKHYGQFTCEGCKSFFKRSVRRNLTYTCRANRNCPIDQHHRNQDQYCRLKKCLKVGMRREAVQRG | -0.815 ± 0.28
HIECVVCGDKSSGKHYGQFTCEGCKSFFKRSVRRNLTYTCRANRNCPIDQHHRNQEQYCRLKKCLKVGMRREAVQRG | -0.87 ± 0.15
HIECVVCGDKSSGKHYGQFTCEGCKSFFKRSVRRNLTYTCRANRNCPIDQHHRNQFQYCRLKKCLKVGMRREAVQRG | -0.506 ± 0.17
HIECVVCGDKSSGKHYGQFTCEGCKSFFKRSVRRNLTYTCRANRNCPIDQHHRNQGQYCRLKKCLKVGMRREAVQRG | -0.786 ± 0.08
HIECVVCGDKSSGKHYGQFTCEGCKSFFKRSVRRNLTYTCRANRNCPIDQHHRNQHQYCRLKKCLKVGMRREAVQRG | -0.6 ± 0.2
HIECVVCGDKSSGKHYGQFTCEGCKSFFKRSVRRNLTYTCRANRNCPIDQHHRNQIQYCRLKKCLKVGMRREAVQRG | -0.627 ± 0.19
HIECVVCGDKSSGKHYGQFTCEGCKSFFKRSVRRNLTYTCRANRNCPIDQHHRNQKQYCRLKKCLKVGMRREAVQRG | -0.926 ± 0.29

Variant | abundance fitness
HIECVVCGDKSSGKHYGQFTCEGCKSFFKRSVRRNLTYTCRANRNCPIDQHHRNQMQYCRLKKCLKVGMRREAVQRG | -0.636 ± 0.17
HIECVVCGDKSSGKHYGQFTCEGCKSFFKRSVRRNLTYTCRANRNCPIDQHHRNQNQYCRLKKCLKVGMRREAVQRG | -0.373 ± 0.21
HIECVVCGDKSSGKHYGQFTCEGCKSFFKRSVRRNLTYTCRANRNCPIDQHHRNQPQYCRLKKCLKVGMRREAVQRG | -1 ± 0.27
HIECVVCGDKSSGKHYGQFTCEGCKSFFKRSVRRNLTYTCRANRNCPIDQHHRNQQQYCRLKKCLKVGMRREAVQRG | -0.82 ± 0.28
HIECVVCGDKSSGKHYGQFTCEGCKSFFKRSVRRNLTYTCRANRNCPIDQHHRNQRQYCRLKKCLKVGMRREAVQRG | -0.886 ± 0.091
HIECVVCGDKSSGKHYGQFTCEGCKSFFKRSVRRNLTYTCRANRNCPIDQHHRNQSQYCRLKKCLKVGMRREAVQRG | -0.723 ± 0.15
HIECVVCGDKSSGKHYGQFTCEGCKSFFKRSVRRNLTYTCRANRNCPIDQHHRNQTQYCRLKKCLKVGMRREAVQRG | -1.13 ± 0.31
HIECVVCGDKSSGKHYGQFTCEGCKSFFKRSVRRNLTYTCRANRNCPIDQHHRNQVQYCRLKKCLKVGMRREAVQRG | -0.758 ± 0.093
HIECVVCGDKSSGKHYGQFTCEGCKSFFKRSVRRNLTYTCRANRNCPIDQHHRNQYQYCRLKKCLKVGMRREAVQRG | -0.612 ± 0.35
HIECVVCGDKSSGKHYGQFTCEGCKSFFKRSVRRNLTYTCRANRNCPIDQHHRNQCAYCRLKKCLKVGMRREAVQRG | -0.035 ± 0.058
HIECVVCGDKSSGKHYGQFTCEGCKSFFKRSVRRNLTYTCRANRNCPIDQHHRNQCCYCRLKKCLKVGMRREAVQRG | -0.093 ± 0.14
HIECVVCGDKSSGKHYGQFTCEGCKSFFKRSVRRNLTYTCRANRNCPIDQHHRNQCDYCRLKKCLKVGMRREAVQRG | 0.046 ± 0.095
HIECVVCGDKSSGKHYGQFTCEGCKSFFKRSVRRNLTYTCRANRNCPIDQHHRNQCEYCRLKKCLKVGMRREAVQRG | 0.183 ± 0.06
HIECVVCGDKSSGKHYGQFTCEGCKSFFKRSVRRNLTYTCRANRNCPIDQHHRNQCFYCRLKKCLKVGMRREAVQRG | -0.036 ± 0.11
HIECVVCGDKSSGKHYGQFTCEGCKSFFKRSVRRNLTYTCRANRNCPIDQHHRNQCGYCRLKKCLKVGMRREAVQRG | 0.07 ± 0.047
HIECVVCGDKSSGKHYGQFTCEGCKSFFKRSVRRNLTYTCRANRNCPIDQHHRNQCHYCRLKKCLKVGMRREAVQRG | 0.054 ± 0.12
HIECVVCGDKSSGKHYGQFTCEGCKSFFKRSVRRNLTYTCRANRNCPIDQHHRNQCKYCRLKKCLKVGMRREAVQRG | -0.341 ± 0.11
HIECVVCGDKSSGKHYGQFTCEGCKSFFKRSVRRNLTYTCRANRNCPIDQHHRNQCLYCRLKKCLKVGMRREAVQRG | -0.221 ± 0.083
HIECVVCGDKSSGKHYGQFTCEGCKSFFKRSVRRNLTYTCRANRNCPIDQHHRNQCMYCRLKKCLKVGMRREAVQRG | -0.121 ± 0.15
HIECVVCGDKSSGKHYGQFTCEGCKSFFKRSVRRNLTYTCRANRNCPIDQHHRNQCNYCRLKKCLKVGMRREAVQRG | 0.163 ± 0.12
HIECVVCGDKSSGKHYGQFTCEGCKSFFKRSVRRNLTYTCRANRNCPIDQHHRNQCPYCRLKKCLKVGMRREAVQRG | -0.042 ± 0.083
HIECVVCGDKSSGKHYGQFTCEGCKSFFKRSVRRNLTYTCRANRNCPIDQHHRNQCRYCRLKKCLKVGMRREAVQRG | -0.231 ± 0.052
HIECVVCGDKSSGKHYGQFTCEGCKSFFKRSVRRNLTYTCRANRNCPIDQHHRNQCSYCRLKKCLKVGMRREAVQRG | -0.059 ± 0.06
HIECVVCGDKSSGKHYGQFTCEGCKSFFKRSVRRNLTYTCRANRNCPIDQHHRNQCTYCRLKKCLKVGMRREAVQRG | -0.088 ± 0.1

Variant | abundance fitness
HIECVVCGDKSSGKHYGQFTCEGCKSFFKRSVRRNLTYTCRANRNCPIDQHHRNQCVYCRLKKCLKVGMRREAVQRG | -0.567 ± 0.084
HIECVVCGDKSSGKHYGQFTCEGCKSFFKRSVRRNLTYTCRANRNCPIDQHHRNQCWYCRLKKCLKVGMRREAVQRG | 0.156 ± 0.068
HIECVVCGDKSSGKHYGQFTCEGCKSFFKRSVRRNLTYTCRANRNCPIDQHHRNQCYYCRLKKCLKVGMRREAVQRG | 0.296 ± 0.21
HIECVVCGDKSSGKHYGQFTCEGCKSFFKRSVRRNLTYTCRANRNCPIDQHHRNQCQACRLKKCLKVGMRREAVQRG | 0.017 ± 0.037
HIECVVCGDKSSGKHYGQFTCEGCKSFFKRSVRRNLTYTCRANRNCPIDQHHRNQCQDCRLKKCLKVGMRREAVQRG | -0.046 ± 0.059
HIECVVCGDKSSGKHYGQFTCEGCKSFFKRSVRRNLTYTCRANRNCPIDQHHRNQCQECRLKKCLKVGMRREAVQRG | 0.027 ± 0.04
HIECVVCGDKSSGKHYGQFTCEGCKSFFKRSVRRNLTYTCRANRNCPIDQHHRNQCQFCRLKKCLKVGMRREAVQRG | 0.072 ± 0.088
HIECVVCGDKSSGKHYGQFTCEGCKSFFKRSVRRNLTYTCRANRNCPIDQHHRNQCQGCRLKKCLKVGMRREAVQRG | -0.18 ± 0.034
HIECVVCGDKSSGKHYGQFTCEGCKSFFKRSVRRNLTYTCRANRNCPIDQHHRNQCQHCRLKKCLKVGMRREAVQRG | 0.051 ± 0.069
HIECVVCGDKSSGKHYGQFTCEGCKSFFKRSVRRNLTYTCRANRNCPIDQHHRNQCQICRLKKCLKVGMRREAVQRG | -0.866 ± 0.28
HIECVVCGDKSSGKHYGQFTCEGCKSFFKRSVRRNLTYTCRANRNCPIDQHHRNQCQKCRLKKCLKVGMRREAVQRG | -0.366 ± 0.066
HIECVVCGDKSSGKHYGQFTCEGCKSFFKRSVRRNLTYTCRANRNCPIDQHHRNQCQLCRLKKCLKVGMRREAVQRG | -0.378 ± 0.044
HIECVVCGDKSSGKHYGQFTCEGCKSFFKRSVRRNLTYTCRANRNCPIDQHHRNQCQMCRLKKCLKVGMRREAVQRG | -0.312 ± 0.063
HIECVVCGDKSSGKHYGQFTCEGCKSFFKRSVRRNLTYTCRANRNCPIDQHHRNQCQNCRLKKCLKVGMRREAVQRG | -0.548 ± 0.11
HIECVVCGDKSSGKHYGQFTCEGCKSFFKRSVRRNLTYTCRANRNCPIDQHHRNQCQPCRLKKCLKVGMRREAVQRG | -0.587 ± 0.08
HIECVVCGDKSSGKHYGQFTCEGCKSFFKRSVRRNLTYTCRANRNCPIDQHHRNQCQQCRLKKCLKVGMRREAVQRG | -0.231 ± 0.052
HIECVVCGDKSSGKHYGQFTCEGCKSFFKRSVRRNLTYTCRANRNCPIDQHHRNQCQRCRLKKCLKVGMRREAVQRG | -0.458 ± 0.043
HIECVVCGDKSSGKHYGQFTCEGCKSFFKRSVRRNLTYTCRANRNCPIDQHHRNQCQTCRLKKCLKVGMRREAVQRG | -0.774 ± 0.09
HIECVVCGDKSSGKHYGQFTCEGCKSFFKRSVRRNLTYTCRANRNCPIDQHHRNQCQVCRLKKCLKVGMRREAVQRG | -0.787 ± 0.073
HIECVVCGDKSSGKHYGQFTCEGCKSFFKRSVRRNLTYTCRANRNCPIDQHHRNQCQWCRLKKCLKVGMRREAVQRG | -0.03 ± 0.04
HIECVVCGDKSSGKHYGQFTCEGCKSFFKRSVRRNLTYTCRANRNCPIDQHHRNQCQYARLKKCLKVGMRREAVQRG | -0.668 ± 0.062
HIECVVCGDKSSGKHYGQFTCEGCKSFFKRSVRRNLTYTCRANRNCPIDQHHRNQCQYDRLKKCLKVGMRREAVQRG | -0.729 ± 0.14
HIECVVCGDKSSGKHYGQFTCEGCKSFFKRSVRRNLTYTCRANRNCPIDQHHRNQCQYERLKKCLKVGMRREAVQRG | -0.696 ± 0.078
